Data as given in JP2024028198A (dated 2024).

molecular target: ヒトPAD4 (human, UniProt Q9UM07 1-663, limits assumed); assay: cell-based or functional assay
Sequence (Q9UM07 whole entry): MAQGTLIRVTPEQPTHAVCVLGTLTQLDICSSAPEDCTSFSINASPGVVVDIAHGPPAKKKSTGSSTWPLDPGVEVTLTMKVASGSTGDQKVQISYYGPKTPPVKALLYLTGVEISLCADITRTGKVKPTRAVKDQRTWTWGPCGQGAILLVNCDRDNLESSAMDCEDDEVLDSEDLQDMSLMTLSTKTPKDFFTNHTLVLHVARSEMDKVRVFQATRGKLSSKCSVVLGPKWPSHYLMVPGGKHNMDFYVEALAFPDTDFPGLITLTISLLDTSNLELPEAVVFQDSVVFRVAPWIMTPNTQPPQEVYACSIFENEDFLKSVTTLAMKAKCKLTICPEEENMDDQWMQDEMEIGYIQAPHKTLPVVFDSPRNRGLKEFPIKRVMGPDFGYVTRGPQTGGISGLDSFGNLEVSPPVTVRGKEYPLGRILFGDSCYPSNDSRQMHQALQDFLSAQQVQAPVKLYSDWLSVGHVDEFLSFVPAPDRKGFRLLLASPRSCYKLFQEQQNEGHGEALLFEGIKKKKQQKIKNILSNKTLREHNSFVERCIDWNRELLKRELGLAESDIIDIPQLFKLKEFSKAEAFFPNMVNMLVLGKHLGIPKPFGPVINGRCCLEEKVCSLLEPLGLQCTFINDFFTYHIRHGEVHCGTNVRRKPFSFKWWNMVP

Binder | ヒトPAD4酵素阻害活性 IC50 (BAEE citrullination, colorimetric) [µM]
抗PAD4抗体Lib2(4R)-1-47 (antibody, V domains shown) VH: EVQLLESGGGLVQPGGSLRLSCAASGFTFSTYAMGWVRQAPGKGLEFVAAIRNDGSWTGYGTPYKTRFTISRDNSKNTLYLQMNSLRAEDTAVYYCAKYTGSSGGSIGAWGQGTLVTVSS VL: SYELTQPPSVSVSPGQTARITCSGGNRNYYYGWYQQKPGQAPVTVIYANDKRPSGIPERFSGSNSGSTTTLTISGVQAEDEADYYCGTATTGKYVFGGGTKLTVLG | 0.0096
抗PAD4抗体2-1-47 (antibody, human IgG1, lambda, V domains shown) VH: EVQLLESGGGLVQPGGSLRLSCAASGFTFSTYAMGWVRQAPGKGLEFVAAIRNDGSWTGYGTPYKTRFTISRDNSKNTLYLQMSSLRAEDTAVYYCAKYTGSSGGSIGAWGQGTLVTVSS VL: SYELTQPPSVSVSPGQTARITCSGGNRNYYYGWYQQKPGQAPVTVIYANDKRPSGIPERFSGSNSGSTTTLTISGVQAEDEADYYCGTATTGKYVFGGGTKLTVLG | 0.0122
ヒト化抗PAD4抗体G8 (antibody, human IgG1, lambda, V domains shown) VH: not shown VL: SYELTQPPSVSVSPGQTARITCSGGNRNYYYGWYQQKPGQAPVTVIYANDKRPSGIPERFSGSNSGSTTTLTISGVQAEDEADYYCGTADTGKYVFGGGTKLTVLG | 0.0216
ヒト化抗PAD4抗体G8ss (antibody, human IgG1, lambda, V domains shown) VH: not shown VL: SYELTQPPSVSVSPGQTARITCSGGNRNYYYGWYQQKPGQAPVTVIYANDKRPSGIPERFSGSNSGSTTTLTISGVQAEDEADYYCGTADTGKYVFGGGTKLTVLG | 0.0203

Further lines, results first:

ヒトPAD4酵素阻害活性 IC50 (BAEE citrullination, colorimetric) [µM] | Binder
0.0087 | 抗PAD4抗体Lib1(6R)-1-39 (antibody, V domains shown) VH: EVQLLESGGGLVQPGGSLRLSCAASGFTFSTYAMGWVRQAPGKGLEFVAAIRNDGSWTGTSVNAKTRFTISRDNSKNTLYLQMNSLRAEDTAVYYCAKYTGSSGGSIGAWGQGTLVTVSS VL: SYELTQPPSVSVSPGQTARITCSGGNRNYYYGWYQQKPGQAPVTVIYANDKRPSGIPERFSGSNSGSTTTLTISGVQAEDEADYYCGTATTGKYVFGGGTKLTVLG
0.0088 | 抗PAD4抗体3-1-39 (antibody, human IgG1, lambda, V domains shown) VH: EVQLLESGGGLVQPGGSLRLSCAASGFTFSTYAMGWVRQAPGKGLEFVAAIRNDGSWTGTSVNAKTRFTISRDNSKNTLYLQMSSLRAEDTAVYYCAKYTGSSGGSIGAWGQGTLVTVSS VL: SYELTQPPSVSVSPGQTARITCSGGNRNYYYGWYQQKPGQAPVTVIYANDKRPSGIPERFSGSNSGSTTTLTISGVQAEDEADYYCGTATTGKYVFGGGTKLTVLG
0.0083 | 抗PAD4抗体Lib2(5R)-2-25 (antibody, V domains shown) VH: EVQLLESGGGLVQPGGSLRLSCAASGFTFSTYAMGWVRQAPGKGLEFVAAIRNDGSWTGYPPPLKGRFTISRDNSKNTLYLQMNSLRAEDTAVYYCAKYTGSSGGSIGAWGQGTLVTVSS VL: SYELTQPPSVSVSPGQTARITCSGGNRNYYYGWYQQKPGQAPVTVIYANDKRPSGIPERFSGSNSGSTTTLTISGVQAEDEADYYCGTAYTGKYVFGGGTKLTVLG
0.0153 | 抗PAD4抗体3-2-37 (antibody, human IgG1, lambda, V domains shown) VH: EVQLLESGGGLVQPGGSLRLSCAASGFTFSTYAMGWVRQAPGKGLEFVAAIRNDGSWTGIGYNQKSRFTISRDNSKNTLYLQMSSLRAEDTAVYYCGKYTGSSGGSIGAWGQGTLVTVSS VL: SYELTQPPSVSVSPGQTARITCSGGNRNYYYGWYQQKPGQAPVTVIYANDKRPSGIPERFSGSNSGSTTTLTISGVQAEDEADYYCGTALTGKYVFGGGTKLTVLG
0.0134 | 抗PAD4抗体Lib1(6R)-2-37 (antibody, V domains shown) VH: EVQLLESGGGLVQPGGSLRLSCAASGFTFSTYAMGWVRQAPGKGLEFVAAIRNDGSWTGIGYNQKSRFTISRDNSKNTLYLQMNSLRAEDTAVYYCGKYTGSSGGSIGAWGQGTLVTVSS VL: SYELTQPPSVSVSPGQTARITCSGGNRNYYYGWYQQKPGQAPVTVIYANDKRPSGIPERFSGSNSGSTTTLTISGVQAEDEADYYCGTALTGKYVFGGGTKLTVLG
0.0076 | 抗PAD4抗体4-2-25 (antibody, human IgG1, lambda, V domains shown) VH: EVQLLESGGGLVQPGGSLRLSCAASGFTFSTYAMGWVRQAPGKGLEFVAAIRNDGSWTGYPPPLKGRFTISRDNSKNTLYLQMSSLRAEDTAVYYCAKYTGSSGGSIGAWGQGTLVTVSS VL: SYELTQPPSVSVSPGQTARITCSGGNRNYYYGWYQQKPGQAPVTVIYANDKRPSGIPERFSGSNSGSTTTLTISGVQAEDEADYYCGTAYTGKYVFGGGTKLTVLG
